Patent US20140235553A1 (REGENTS OF THE UNIVERSITY OF COLORADO A BODY CORPRATE, published 2014)

B1: NTD-αB crystallin fusion protein (other)
chain: MGSRVQIRCRFRNSTRDIAIHHPWIRRPFFPFHSPSRLFDQFFGEHLLESDLFPTSTSLSPFYLRPPSFLRAPSWFDTGLSEMRLEKDRFSVNLDVKHFSPEELKVKVLGDVIEVHGKHEERQDEHGFISREFHRKYRIPADVDPLTITSSLSSDGVLTVNGPRKQVSGPERTIPITREEKPAVTAAPKK
notes: also called NTD-HSPB5; A B NgC
B2: NTD-αA crystallin fusion protein (other)
chain: MGSRVQIRCRFRNSTRDVTIQHPWFKRTLGPFYPSRLFDQFFGEGLFEYDLLPFLSSTISPYYRQSLFRTVLDSGISEVRSDRDKFVIFLDVKHFSPEDLTVKVQDDFVEIHGKHNERQDDHGYISREFHRRYRLPSNVDQSALSCSLSADGMLTFCGPKIQTGLDATHAERAIPVSREEKPTSAPSS
notes: also called NTD modified α-crystallin subunit (αA)
B3: αB-crystallin (HSPB5), no transduction peptide (other)
chain: MDIAIHHPWIRRPFFPFHSPSRLFDQFFGEHLLESDLFPTSTSLSPFYLRPPSFLRAPSWFDTGLSEMRLEKDRFSVNLDVKHFSPEELKVKVLGDVIEVHGKHEERQDEHGFISREFHRKYRIPADVDPLTITSSLSSDGVLTVNGPRKQVSGPERTIPITREEKPAVTAAPKK
notes: also called native αB crystallin; unfused αB crystallin

Legend:
[1] = target: the molecule itself; test: size exclusion chromatography (Superose 6), self-association into oligomeric complexes
[2] = target: the molecule itself; test: size exclusion chromatography, self-association into oligomeric complexes
[3] = target: B1; test: subunit exchange: AlexaFluor-labeled NTD-αB crystallin with 10-fold molar excess of unlabeled αB crystallin at 37° C., size exclusion FPLC, fluorescence of fractions

**Q.** Does B1 bind [1]?
**A.** binds

**Q.** Does B2 bind [2]?
**A.** binds

**Q.** Does B3 bind [3]?
**A.** binds
